The text below walks through data of publication PMC11951571, “Mechanism of non-coding RNA regulation of DNMT3A”.

Series [1] addresses T1, DNMT3A_FL WT (human, UniProt Q9Y6K1 1-912). The series can be described thus: fluorescence anisotropy; 1 uM protein in complex with 10 nM FAM-H3K4me0 peptide (1-21); 50 uM sinefungin; no anisotropy change; 50 mM KH2PO4/K2HPO4 pH 7.8, 1 mM EDTA, 1 mM DTT, 0.2 mg/ml BSA, 20 mM NaCl, 50 uM sinefungin (printed 'μm'), room temperature, 5 min. For orientation: In fluorescence polarisation assays a small probe gives low polarisation when free and higher when bound to something large.

Series [2] deals with DNMT3A_CD R729A (human, UniProt Q9Y6K1 634-912, R729A). The series can be described thus: fluorescence anisotropy; 1 uM protein pre-bound to 10 nM FAM-GCbox30; 50 uM sinefungin; 50 mM KH2PO4/K2HPO4 pH 7.8, 1 mM EDTA, 1 mM DTT, 0.2 mg/ml BSA, 20 mM NaCl, 50 uM sinefungin (printed 'μm'), room temperature, 5 min. To be noted: protein: recombinant; tags: His (pET28a, nickel column); chain copies: 2; 25 nt.
Chain of DNMT3A_CD R729A (Q9Y6K1 634-912 R729A): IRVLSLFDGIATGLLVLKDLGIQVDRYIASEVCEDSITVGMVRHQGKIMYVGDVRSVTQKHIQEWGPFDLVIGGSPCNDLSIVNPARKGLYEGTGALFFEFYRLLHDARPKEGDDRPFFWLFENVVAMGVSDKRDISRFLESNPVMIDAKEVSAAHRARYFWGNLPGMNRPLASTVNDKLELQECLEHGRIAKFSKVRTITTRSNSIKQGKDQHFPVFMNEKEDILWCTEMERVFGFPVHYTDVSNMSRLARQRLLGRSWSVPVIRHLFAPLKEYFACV

Series [3] has as its target DNMT3A_CD R736A (human, UniProt Q9Y6K1 634-912, R736A). The series is described as above. To be noted: protein: recombinant; tags: His (pET28a, nickel column); chain copies: 4; 25 nt.
For series [4], the target named is T1, DNMT3A_FL WT. The series can be described thus: fluorescence anisotropy; 1 uM protein in complex with 10 nM FAM-H3K4me0 peptide (1-21); 50 uM sinefungin; 50 mM KH2PO4/K2HPO4 pH 7.8, 1 mM EDTA, 1 mM DTT, 0.2 mg/ml BSA, 20 mM NaCl, 50 uM sinefungin (printed 'μm'), room temperature, 5 min.
Series [5] addresses DNMT3A_CD WT (human, UniProt Q9Y6K1 634-912). The series can be described thus: fluorescence anisotropy; 1 uM protein pre-bound to 10 nM FAM-GCbox30; 50 uM sinefungin; anisotropy rises on RNA addition; 50 mM KH2PO4/K2HPO4 pH 7.8, 1 mM EDTA, 1 mM DTT, 0.2 mg/ml BSA, 20 mM NaCl, 50 uM sinefungin (printed 'μm'), room temperature, 5 min. To be noted: protein: recombinant; tags: His (pET28a, nickel column); chain copies: 4; 25 nt.

Series [6] concerns the target DNMT3A_CD R771A;DNMT3L (human;human, UniProt Q9Y6K1;Q9UJW3 634-912;1-386, R771A|). The series can be described thus: fluorescence anisotropy; heterotetramer pre-bound to 10 nM FAM-GCbox30; 50 uM sinefungin; 50 mM KH2PO4/K2HPO4 pH 7.8, 1 mM EDTA, 1 mM DTT, 0.2 mg/ml BSA, 20 mM NaCl, 50 uM sinefungin (printed 'μm'), room temperature, 5 min. To be noted: protein: recombinant;recombinant; tags: His (pET28a, nickel column);; chain copies: 2;2; 25 nt.

T1 sequence (Q9Y6K1 whole entry): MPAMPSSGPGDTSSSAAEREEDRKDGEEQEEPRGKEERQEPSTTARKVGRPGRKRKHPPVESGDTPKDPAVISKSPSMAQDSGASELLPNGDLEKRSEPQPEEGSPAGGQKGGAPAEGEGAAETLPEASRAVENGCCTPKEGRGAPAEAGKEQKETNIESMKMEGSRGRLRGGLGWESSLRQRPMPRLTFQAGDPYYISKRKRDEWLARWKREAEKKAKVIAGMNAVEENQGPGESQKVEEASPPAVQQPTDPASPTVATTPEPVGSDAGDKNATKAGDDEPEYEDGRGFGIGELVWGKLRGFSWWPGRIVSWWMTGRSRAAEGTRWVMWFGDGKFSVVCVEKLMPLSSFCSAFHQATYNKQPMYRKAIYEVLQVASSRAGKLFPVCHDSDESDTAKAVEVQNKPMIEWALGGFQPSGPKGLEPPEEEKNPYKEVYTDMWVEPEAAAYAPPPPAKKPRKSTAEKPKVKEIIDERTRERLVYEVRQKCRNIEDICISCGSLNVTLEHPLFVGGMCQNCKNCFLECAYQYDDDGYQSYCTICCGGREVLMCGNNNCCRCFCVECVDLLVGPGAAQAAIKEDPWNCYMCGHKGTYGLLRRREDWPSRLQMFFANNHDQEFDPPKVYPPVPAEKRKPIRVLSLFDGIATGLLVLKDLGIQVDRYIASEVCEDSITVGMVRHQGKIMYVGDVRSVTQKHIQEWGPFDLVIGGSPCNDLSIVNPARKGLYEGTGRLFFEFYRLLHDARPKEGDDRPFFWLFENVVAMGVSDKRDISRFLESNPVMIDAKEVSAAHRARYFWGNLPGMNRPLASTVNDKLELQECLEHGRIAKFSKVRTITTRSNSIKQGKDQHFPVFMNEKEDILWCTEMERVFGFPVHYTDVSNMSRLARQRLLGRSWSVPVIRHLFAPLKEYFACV
Chain of DNMT3A_CD WT (Q9Y6K1 634-912): as the sequence (Q9Y6K1 634-912 R729A) above, with A96R counted along it
Chain of DNMT3A_CD R736A (Q9Y6K1 634-912 R736A): as the sequence (Q9Y6K1 634-912 R729A) above, with A96R, R103A counted along it
Chain of DNMT3A_CD R771A;DNMT3L (Q9Y6K1 634-912 R771A, chain 1 of 2): as the sequence (Q9Y6K1 634-912 R729A) above, with A96R, R138A counted along it
Chain of DNMT3A_CD R771A;DNMT3L (Q9UJW3 whole entry, chain 2 of 2): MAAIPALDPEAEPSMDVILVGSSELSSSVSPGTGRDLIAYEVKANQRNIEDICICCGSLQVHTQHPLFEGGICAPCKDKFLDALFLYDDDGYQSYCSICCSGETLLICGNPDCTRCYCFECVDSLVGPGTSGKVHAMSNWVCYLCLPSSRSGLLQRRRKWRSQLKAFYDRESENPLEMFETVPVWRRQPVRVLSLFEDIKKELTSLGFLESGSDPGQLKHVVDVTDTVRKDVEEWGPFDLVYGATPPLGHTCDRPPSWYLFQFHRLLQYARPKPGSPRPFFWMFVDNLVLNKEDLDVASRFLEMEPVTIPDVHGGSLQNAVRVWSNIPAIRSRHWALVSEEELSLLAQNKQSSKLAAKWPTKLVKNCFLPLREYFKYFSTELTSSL

Turning to CGACCGCCUACUGAAAGAGGGC (ssRNA) [non-specific RNA], the binding result in series [1] was “no binding”.
For GGGGACACGCCCUCUGUUCCCUUAU (ssRNA) [Fos-1 ecRNA], the binding result in series [2], in series [3], in series [4], in series [5] and in series [6] was “binds” in each case.
